According to the DeepSol protein solubility set:

Test: soluble on expression in E. coli; label from the status in PepcDB or PDB records
With “MSLSSEQQAMIDYVLAGKDVIVDATVGSGKTTAIQRLCSIMGADHDVLYLTYSKLLKVDAQQRVRGAKVQNYHGIVYPHLLKAGIKCGISESIREFNKNFKHISRTFPSYDLLVIDEYQDINEDYAELLRNIKSVNPLMQIVMVGDLEQKVRSDTTLDPQEFAAQLCEDPVFAPFTQSFRIGEAMAAGLADAWNKPIVGANTAQQIEYRSFAEAVVLIQSTEPSKLLCLGSRNGQMSDALNVVERKSPAKFNKKTVFASIRDGDSQIAHPNDAAVFTTFDSSKGLERDTCVVFDYDEEFWDMRLGYPNVDPVVMRNVFLVAASRGKNKVVFVRSDSLQAAYEAGADWAAGLAVGVVDNNTEVAPEVDAHTPAEESKGDVGEVQSQIERMMGFIPVSVFKELPELAPSEYARPISVTEAFDFKYAENVEACFDLLDVKRLDNGKGAAIEVNRSDGLIDLSPTVGNFQEAVFFKDYNVHTALSAYPSQFAKNLKRLVKKNNSVWRNCLIVTAASTEQMRYVDQVRSSIPVAAEKALVSRLSTRLNADSRNQIPLILDGEAVQSKVVRTPMSFAGVADAVHKGVLYELKFVSELTHPMFLQLAMYLVMSGMKDGILWNTRTDEAWQVRVPDPKRFLNAVVLCVSKQDYRVGNFDLPSTGGEGHHHHHH” the “soluble on expression in E. coli” value was “not soluble”.
With “MSKEPGEDVDLFDMEQFQSSFKRILQRALKNVTVSFRVYEKDSVWIRVAWGTQYSQPNQYKPTFVVYYPQTPYAFISSCHLKNTVPLLHQALKVASKHHQIVHLDLRSRHLDSLKAIVFREYNQTCENYSSTTSLQEASLSMCLDSKITHENTEEKVRVHRVTQETFGTYPQPQLEFAQYKLETKFKSNIGGGLLADRKEPFRCLVKFSSPHLLEALKSLAPAGIADAPLSPLLTCIPSKKMNYFKIRDK” the “soluble on expression in E. coli” value was “not soluble”.
In the case of “MGSDKIHHHHHHMADAPIDIFQSILSRKSIRAFTDQPVTQETIREILKLAARAPSGTNLQPWQVIVLTGKILQKVGQELSQLVLSGIKGEREYHYYPRQWREPYLSRRRKVGLDLYKSLGIQKGDQEKMLHQKAKNFLFYGAPVGLLFTIDHDMEMGSWLDLGMFMQTIMLAARGFGLDTCAQAAFADYHKQIRSLLSVPSDRHIICGMALGYRDMNAPENNFETEREPIDNFVHFIKSYP”, the “soluble on expression in E. coli” value is reported as “not soluble”.
For “MAHHHHHHMFHGMNKTNTWAVILSSSRYFFNLRHTTNALAMYHLCRKHGMDDDHILVFLSDSYACDPRKPNPATIYGAPAQAEQPNLYGCNIRVDYASYDVGVRRFLGVLQGRYDENTPPSRRLDTDENSNIIIYAAGHSAEKFFKFQDSEFMSSTDIADTLMMMWEQRRYRKLVFLVDTCRALSLCLEIKAPNVVCLASSEAHLDSYSHHLDPPSGFTVITRWTFEFLEVLKDSKCRPENGEVTLLQKSFYDFNYGPERLSLPQPLSEPAHFDAVNRPNAVREWKMDEFFCEQDRDKIPVELRYDLF”, the “soluble on expression in E. coli” value was “not soluble”.
In the case of “MIRYMIKESRMELIEENMKHLQDRLKTAKENEMSAKTVRHDFRHHNQNIATMIQKGETNEALHYIEQYNESLDAARTKEFCSHVTVNAILSSFYIKAQNDGICISIEADTQEGTNISDMDFVAILSNILENAVNGCKECGAHGKINVNIRTVSDKTVIVCSNSCKPGLVIENNMIKHRGIGIESMLTAARKYDGDISYRLENDVLTLCVILKK”, the “soluble on expression in E. coli” value is reported as “not soluble”.
For “MSLKNLHPIMLAGTGSDVGKSVIAAALCRIFKQDGYRPAPFKAQNMALNSYATPEGLEIGRAQAVQAEAAGVPCHTDMNPLLLKPSSDHTSQVVLNGRPIGNRNAFEYFRKEGREELRQEVNAAFDRLAARYNPIVMEGAGSISEINLRDTDLVNMPMACYADADVILVADIDRGGVFASVYGSVMLQTPEDKKRIKGVIINKFRGDIRLFESGVKMMEDLCGIPVLGIIPYYRNIHIEEEDSVGLDYKRMQAVEGKINIAVVLLRHLSNFTDFNRLERDERVHLYYTNNTEDLAKADIILLPGSKSTLDDLYELRRNGVAQAVLRAHREGVTVMGICGGYQLMGLEIHDPEGVEGEIRQLPGLGLLPVITTMQGEKVTRQVNFHFLENAETCQGYEIHMGETRPVPGEAVVPLNKLEDGGEDGCFVNQKCMGSYIHGILDNQAFIDYLLEPYAEKLEEGHHHHHH”, the “soluble on expression in E. coli” value was “not soluble”.
In the case of “MFSRRTTPSPSITTASSSTFSISNLTNNNATSTSDLPASAISNIVPQIPPTPRRVPPKIGLLRHLSGFLESKKDLMNDWEIGGTQNKWVCPSDRHLHLRAQLKSGWSVRTATARSPTNSKAQTGSITAAEQEHIQKVLAKAEESKSKEQQRIGKMVDRLEKMRRRATGNGVTHCLLCHTEFGLLASKSYAAMCVDCRKYVCQRNCGVETTDVNQTTGKVETVFLCKICSEAREVLWKKSGAWFYKEMPEFQRPDDRLPYYVPVTTNGTLPNASSAATPLSGTPGGAGPQPMTMPSTSSCQMTTPKWASPGVCNSPGLQMNGGPTSPLPNGTRRNTGHGGIEFPSSSRPSICSVLQAIEPLDRSKSPRPRIQPRWVNEKVMSSMSVDDEEKAASSSDGESFVQSGVPRRALNNKTPVGSTSATTSPAPPPTSTTPTSRREANMERFSRHTHAHANRLYSTDDDDDSSPESRPSTRSTSPRHSLATPSSYAHDTCHDTSLPDADTRSIDSGVVQSDHSNPQQSGLTCSSSSLTPLQQQASHDHHSGGGTPRRISNPDRTTSRVAQSASGTSLVTPPPPISSRTSPDNCNSSPLNVMEHKSSSASTASSGGNRRVGSAEPVLNNHHAMHNNQNHNDINKKLISQTSRAESPLAASSSFLSSPDDDTKQKNRRRDGVGRVNSLQLRTSLDDVAPPVAPISKMNGHIVSSEPTSSTTSNQNHTSVPIPTVPVVPEEEEEKAITASTESASEPGSLGSITLTLTYHSADKKLKMHLIRAKNLKAMDSNGFSDPYVKFHLLPGNTKATKLTSKTIEKTLNPEWNEEMSYYGITEDDKEKKILRVTVLDRDRIGSDFLGETRIALKKLNDNEMKKFNLYLESALPVPQQTKEEENEDRGKINVGLQYNIQQGSLFININRCVELVGMDSTGFSDPYCKVSLTPITSKAHRAKTSTKKRTLNPEWNEQLQFVVPFKDLPKKTLQIGVYDHDLGKHDDYIGGILLSTSAKDERGRQWIKCIENPGTLVEAWHRLELDS”, the “soluble on expression in E. coli” value is reported as “not soluble”.
For “RRNALELEVFAGQEKSELSMIEVARAILELRGRDHEMHFSDLVNEIQNYLGTSNSDIREALPLFYTELNFDGSFISLGDNKWGLRSWYGVDEIDEEIIALEENDDDEVAPKAKKKRVNAFMDGDSDAIDYNADDPEDEDAYEADPALSYDDENPDDEKNEVEAYDAEINEIAPDDLGEDVDLNEDDDEFSDDDAET”, the “soluble on expression in E. coli” value was “not soluble”.
In the case of “MKPLTYTLVVNGPQYGTQSARNAYLFAKALIEKGHILKSVFFYQDGVLNGSSTHVPANDEFNLLQGWQSLAQSHQVQLETCVAAALRRGVVSEQEASQHGLASHNLAAHFTQAGLGSLAQALLEQDRVVQF”, the “soluble on expression in E. coli” value is reported as “soluble”.
In the case of “TKEGQIKGKLLLPGGVKTCPVVLIIAGSGPTDMDGNSAIGNLRNNSLKFLAEGLAANGIASLRFDKRGIGTSASAGKEEAKLRFEDYVNDVTGWIDYLAKEKRFTTITVAGHSEGALIGMLACQNRPKVKGYISVAGAGRPAYEIIEAQVAAQQNPEAVRKEVASINGSLKNGKEVSDVPAYLQSLYRASVQPYLISWFKYNPRTVIASVKVPVLIVQGKNDIQVSVEDAELLKKGCPAAELLLIDKMNHVLKDCESKAVQQQMLTYGNPSLPVNSTLIASVSTFVKKLK”, the “soluble on expression in E. coli” value is reported as “soluble”.
For “MGSDKIHHHHHHMGSYPDGKRIFVKMNTSPILPGLAREQIAPQLLWSRRLADGRDMCAQEWLTGKILTPYDMNRKQIVNILTRLHRSRPLMTQLSRLGYAMETPVDLLQSWQETAPDALRKNHFISEVMADLRQTIPGFREDHATIVHGDVRHSNWIETDSGLIYLVDWDSVRLTDRMFDVAHMLCHYISEHQWKEWLTYYGYKYNQTVLSKLYWYGQLSYLSQISKYYMNQDLENVNREIHGLRHFRDKYGKRR”, the “soluble on expression in E. coli” value was “not soluble”.
With “MIRFEIHGDNLTITDAIRNYIEEKVGKLERYFNNVPNAVAHVRVKTYSNSTTKIEVTIPLKDVTLRAEERHDDLYAGIDLITNKLERQVRKYKTRVNRKHRDRGDQDIFVAEVQESTTNNHADDIESENDIEIIRSKQFSLKPMDSEEAVLQMNLLGHDFFIFTDRETDGTSIVYRRKDGKYGLIETTELEHHHHHH” the “soluble on expression in E. coli” value was “soluble”.
For “MGSDKIHHHHHHMFKNTFQSGFLSILYSIGSKPLQIWDKKVRNGHIKRITDNDIQSLVLEIEGTNVSTTYITCPADPKKTLGIKLPFLVMIIKNLKKYFTFEVQVLDDKNVRRRFRASNYQSTTRVKPFICTMPMRLDDGWNQIQFNLLDFTRRAYGTNYIETLRVQIHANCRIRRVYFSDRLYSEDELPAEFKLYLPVQNKAKQ”, the “soluble on expression in E. coli” value was “not soluble”.
In the case of “MKTSSYLLKAGVDYPTNWDEFVDWFHDEQSCTSYLYALRWPNGFICPSCSSHQSPYQLSNGKLKCHACRFQCSVTSSTLFDKTRTPMKSWFAAVWFITNQKNGVSALGVQRLLGLGSYQTAWSLMHKLRYAMVDPERDKLSGIVEVDETLIGGVIPKSSIKNQQGKRKAIVLVAVELLSPSGFGRIRLRQVESATKEHIHQFIQDVIEPGSTICSDGSQAYKQIDKKGYKHNRMVHLGSSVPAHETMAGVHRVSSLCKRWLLGTYQGAVKAKQLDYYLDEFTFRFNRRKSDSRGLLFYRLLEQAVRLEHHHHHH”, the “soluble on expression in E. coli” value is reported as “soluble”.
For “MIEIKNLTLQRGLKVLLDKANATVNPGQRVGLIGKNGTGKSSLFALIKGEITQDGGDVSIPKNWRLASVSQETPDLDISALDYVLQGDAELQAFQTALRQAEAQNDGMKQAEYHAKLEE”, the “soluble on expression in E. coli” value was “not soluble”.
In the case of “MGNRLMTSGAQGTNAAVIRGAMRADPNLLTVILPQSLDRQPRESREQLEKVIHLVEHAENDHLSLAEASTLCNQAIVTRCQQLICFAFHDSHTLLETCRYAEDQHHLVTLFYFDLEHHHHHH”, the “soluble on expression in E. coli” value is reported as “soluble”.
In the case of “GIDPFTGIDPFTGTQACITAASAVSGIIADLDTTIMFATAGTLNREGAETFADHREGILKTAKVLVEDTKVLVQNAAGSQEKLAQAAQSSVATITRLADVVKLGAASLGAEDPETQVVLINAVKDVAKALGDLISATKAAAGKVGDDPAVWQLKNSAKVMVTNVTSLLKTVKAVEDEATKGTRALEATTEHIRQELAVFCSPEPPAKTSTPEDFIRMTKGITMATAKAVAAGNSCRQEDVIATANLSRRAIADMLRACKEAAFHPEVAPDVRLRALHYGRECANGYLELLDHVLLTLQKPNPDLKQQLTGHSKRVAGSVTELIQAAEAMKGT”, the “soluble on expression in E. coli” value is reported as “soluble”.
In the case of “MSEEVGAKRWYAVHTYSGYENKVKKNLEKRVESMNMTEQIFRVVIPEEEETQVKDGKAKTTVKKTFPGYVLVELIMTDESWYVVRNTPGVTGFVGSAGAGSKPNPLLPEEVRFILKQMGLKEKTIDVELEVGEQVRIKSGPFANQVGEVQEIETDKFKLTVLVDMFGRETPVEVEFDQIEKL”, the “soluble on expression in E. coli” value is reported as “not soluble”.
For “MSVSRRDVLKFAAATPGVLGLGVVASSLRAAPASAGSLGTLLDYAAGVIPASQIRAAGAVGAIRYVSDRRPGGAWMLGKPIQLSEARDLSGNGLKIVSCYQYGKGSTADWLGGASAGVQHARRGSELHAAAGGPTSAPIYASIDDNPSYEQYKNQIVPYLRSWESVIGHQRTGVYANSKTIDWAVNDGLGSYFWQHNWGSPKGYTHPAAHLHQVEIDKRKVGGVGVDVNQILKPQFGQWA”, the “soluble on expression in E. coli” value was “not soluble”.
With “MTHSLVCPETVSRVSSVLNRNTRQFGKKHLFDQDEETCWNSDQGPSQWVTLEFPQLIRVSQLQIQFQGGFSSRRGCLEGSQGTQALHKIVDFYPEDNNSLQTFPIPAAEVDRLKVTFEDATDFFGRVVIYHLRVLGEKV” the “soluble on expression in E. coli” value was “soluble”.
With “EVKQFNTYANNLAKIKQKVILMGLLTEAKLEQYKGLSVDEVEAQTEFSFQDAIYSLSPYEKLNYVEAVARKSLHQAEAYLSNAFNRQNAIMYFRSYTGSKLILERPIKALEGVKATFDVDWCKSNYSCVLAAWKEQLTDRVLFSLPFKTTYSDDMAISIMSPVYFQGELVGEFSEQLYLSSLYNEGKAVDVQISNGNKQMVIYFSGYPWPSFAYTQSFVADNNNLIVYMYPFSKV” the “soluble on expression in E. coli” value was “not soluble”.
